Experimental data from patent US11590206B2, “Liquid pharmaceutical composition” (SANOFI, priority 2017, dated 2023).

Assays:
Assay type in all cases: physicochemical
[1] = Rheology with rotation and capillary rheometer; conditions: Table 2 composition, 5.0 mg/ml; shear rates>1/s
Experimental: To this end, a composition as described above in Table 2 containing 5.0 mg/ml SEQ ID NO.: 2 was added to a rheometer and subjected to measurement. The experiments were performed with a MCR rotation rheometer (Anton Paar) and with capillary rheometer Kinexus (Malvern). […] High shear rates have no influence on the shear viscosity of the formulation (see also FIG. 7).

[2] = FTIR spectroscopy: ratio of alpha and beta sheets; conditions: 5.0 mg/ml and 75 mg/mL named; phosphate buffer, m-cresol, sodium chloride (Table 2)
Experimental: The physical and chemical stability of the stored formulations is determined with the help of the following tests: • Dynamic light scattering (DLS) method was applied to access the subvisible particle size distribution • Fourier transform infrared spectroscopy (FTIR) to analyze the ratio of alpha and beta sheets • Chemical stability (purity and impurities), determined by HPLC • Proteins of high molecular weight, determined by HPSEC
FTIR spectroscopy is a suitable method for the determination of a protein's secondary structure. The vibration giving the most pronounced signal in FTIR spectroscopy is the C═O stretching vibration of amide groups resulting in a signal in the so-called amide I-region (1700-1600 cm^−1). This vibration is sensitive to the hydrogen-bonding pattern, dipole-dipole interactions and the geometry of the polypeptide backbone. […]
As a consequence, the individual component bands that represent the different structural elements, such as α-helices, β-sheets, turns and irregular structures are often not resolved and difficult to identify in the broad amide I-band contours of the experimentally obtained spectra. […] The absolute values for protein conformation determined by the chemometric method can therefore be systematically biased, however, the repeatability of results for samples of the same protein is usually in the range of +/−2%. […]

[3] = ThT assay: fibrillation tendency under thermal and mechanical stress
Experimental: Investigations were carried out to determine fibrillation tendencies under stress conditions using a ThT assay. […] Amyloid-like structures show a beta-sheet rich structure. Fibrillation of peptide solutions is induced by thermic and mechanical stress. Samples are stressed under defined conditions using Fluoroskan Ascent FL.
For the tests in Fluoroskan Ascent FL 200 μL sample were placed into 96 well microtiterplate PS, flat bottom, Greiner Fluotrac No. 655076. Plates were sealed with Scotch Tape (Quiagen). […] The kinetic was monitored by measuring fluorescence intensity every 20 minutes.
Solutions were transferred in 2 mL Eppendorf vials and 20 μL of a 10.1 mM ThT solution in H2O were added to 2 mL of peptide solution to receive a final concentration of 100 μM ThT. For each sample eight replicates were tested.

[4] = Small angle X-ray scattering (SAXS): oligomer size and shape; conditions: in the formulations
Experimental: SAXS measurements were performed at a synchrotron light source (DESY Hamburg). The scattering data from all samples were collected loading 20 microliters of solutions into the capillary and flowing the whole volume across the X-ray beam. Per each sample 20 frames of 0.045 s exposure were collected and, after a statistical consistency check, averaged. The corresponding signals collected for the placebo was then subtracted. Each sample measurement was repeated at least twice to ensure reproducibility.

H-dSer-Q-G-T-F-T-S-D-L-S-K-Q-K(γE-x53)-ESKAAQDFIEWLKAGGPSSGAPPPS-NH2 (HXQGTFTSDLSKQKESKAAQDFIEWLKAGGPSSGAPPPS; D-Ser1, K14 gammaE-palmitoyl lipidation, C-terminal amide; Exendin-4 analogue; MOD_RES (2)..(2) Xaa is a D-Ser; MOD_RES (14)..(14) Lys is functionalized at the amino side chain group as Lys((S)-4-carboxy-4-hexadecanoylamino-butyryl); MOD_RES (39)..(39) Ser is modified with an NH2 group) [SEQ ID NO.: 2, γE-x53 is (S)-4-Carboxy-4-hexadecanoylamino-butyryl-]
fluid property (shear stress, viscosity vs shear rate) [1]: Newtonian fluid
measured value of alpha sheets (FTIR) [2]: 48.9%
measured value of beta sheets (FTIR) [2]: 13.1%
Fibrillation (ThT fluorescence) ([3]; 1 mg/ml in PBS, 100 h incubation at +37° C. and 500 rpm): negligible fibrillation
Fibrillation (ThT fluorescence) ([3]; 5 mg/mL in phosphate buffer, NaCl and m-cresol, pH≈6.6, 100 hours at 37° C. shaking (500 rpm)): no fibrillation was observed
Oligomeric state (best fit of SAXS curve) [4]: all hexameric
